Measurements published in patent US20210221899A1 (published 2021).

Key:
Assay in all cases: SPR (Biacore T200), 100 nM mAb on NGF chip, similarity to parent mAb
canine NGF = target: T1, canine NGF (canine, UniProt Q29074 110-229 (pig entry), limits assumed)
T1 construct: The protein was secreted from CHO cells and purified; also called cNGF; canine β-NGF
T1 chain: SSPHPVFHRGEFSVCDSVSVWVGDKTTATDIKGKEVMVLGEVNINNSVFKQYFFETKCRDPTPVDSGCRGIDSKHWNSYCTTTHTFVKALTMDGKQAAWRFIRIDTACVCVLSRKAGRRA
From the text: (§1) The region of an antibody responsible for antigen recognition represents the paratope. A paratope is created by a combination of amino acids in the complementarity determining regions (CDRs) of both the heavy and light chain variable regions. The binding between antibody and antigen is often mediated by side chains of CDR residues with side chains or carbohydrate moieties of the antigen. To help define critical side chains involved in antibody recognition alanine scanning mutagenesis was performed on each CDR residue in both the heavy and light chain, the technique as described by Cunningham and Wells (1989) Science, Vol. 244, Issue 4908, pp. 1081-1085. These mutants were then individually tested for the ability to NGF using the Biacore. […] Values were then compared to the wild type antibodies and are represented in the tables as a percent of wild type binding. The data presented in Tables 4 and 5 below are shown as a “percent similarity score” compared to wild type.
(§2) The mean response unit of four replicates of the parent mAb+/−3 standard deviations was used to generate parameters to define a threshold of response units comprising both the on- and off-rates antibody binding. The percentage of data points for each mutant fell within this threshold was then used to define a “% similarity score”. […] Results from substitution of alanine at each CDR position

human NGF = target: T2, human NGF (human, UniProt P01138 122-241)
T2 construct: also called human Nerve Growth Factor; hN
T2 chain: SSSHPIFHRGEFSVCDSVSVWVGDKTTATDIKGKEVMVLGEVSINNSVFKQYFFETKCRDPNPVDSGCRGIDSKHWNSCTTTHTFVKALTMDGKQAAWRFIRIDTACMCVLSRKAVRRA
From the text: as §1, §2

rat NGF = target: T3, rat NGF (rat, UniProt P25427 122-241)
T3 construct: also called rN
T3 sequence (P25427 122-241 limits assumed): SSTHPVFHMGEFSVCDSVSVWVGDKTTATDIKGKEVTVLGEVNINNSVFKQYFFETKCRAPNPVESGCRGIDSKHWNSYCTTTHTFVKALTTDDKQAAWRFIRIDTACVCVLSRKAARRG
From the text: as §1, §2

Binder	Percent Similarity Score (KD on cN) (canine NGF)	Percent Similarity Score (KD on hN) (human NGF)	Percent Similarity Score (KD on rN) (rat NGF)
can9L12VH_V108A (antibody, V domains shown) VH: EVQLVESGGDLVKPGGSLRLSCVASGFTFSSHGMHWVRQSPGKGLQWVAVINSGGSSTYYTDAVKGRFTISRDNAKNTVYLQMNSLRAEDTAMYYCAKESVGGWEQLAGPHFDYWGQGTLVIVSS VL: QSVLTQPTSVSGSLGQRVTISCSGSTNNIGILGASWYQLFPGKAPKLLVYGNGNRPSGVPDRFSGADSGDSVTLTITGLQAEDEADYYCQSFDTTLGAHVFGGGTHLTVL	93.2%	56.3%	62%
can9L12VL_I31A (antibody, V domains shown) VH: EVQLVESGGDLVKPGGSLRLSCVASGFTFSSHGMHWVRQSPGKGLQWVAVINSGGSSTYYTDAVKGRFTISRDNAKNTVYLQMNSLRAEDTAMYYCAKESVGGWEQLVGPHFDYWGQGTLVIVSS VL: QSVLTQPTSVSGSLGQRVTISCSGSTNNIGALGASWYQLFPGKAPKLLVYGNGNRPSGVPDRFSGADSGDSVTLTITGLQAEDEADYYCQSFDTTLGAHVFGGGTHLTVL	41.2%	11.4%	12.6%
can9L12VL_G51A (antibody, V domains shown) VH: EVQLVESGGDLVKPGGSLRLSCVASGFTFSSHGMHWVRQSPGKGLQWVAVINSGGSSTYYTDAVKGRFTISRDNAKNTVYLQMNSLRAEDTAMYYCAKESVGGWEQLVGPHFDYWGQGTLVIVSS VL: QSVLTQPTSVSGSLGQRVTISCSGSTNNIGILGASWYQLFPGKAPKLLVYANGNRPSGVPDRFSGADSGDSVTLTITGLQAEDEADYYCQSFDTTLGAHVFGGGTHLTVL	100%	100%	99.9%
can9L12VL_G53A (antibody, V domains shown) VH: EVQLVESGGDLVKPGGSLRLSCVASGFTFSSHGMHWVRQSPGKGLQWVAVINSGGSSTYYTDAVKGRFTISRDNAKNTVYLQMNSLRAEDTAMYYCAKESVGGWEQLVGPHFDYWGQGTLVIVSS VL: QSVLTQPTSVSGSLGQRVTISCSGSTNNIGILGASWYQLFPGKAPKLLVYGNANRPSGVPDRFSGADSGDSVTLTITGLQAEDEADYYCQSFDTTLGAHVFGGGTHLTVL	34.2%	10%	11.7%
can9L12VL_L96A (antibody, V domains shown) VH: EVQLVESGGDLVKPGGSLRLSCVASGFTFSSHGMHWVRQSPGKGLQWVAVINSGGSSTYYTDAVKGRFTISRDNAKNTVYLQMNSLRAEDTAMYYCAKESVGGWEQLVGPHFDYWGQGTLVIVSS VL: QSVLTQPTSVSGSLGQRVTISCSGSTNNIGILGASWYQLFPGKAPKLLVYGNGNRPSGVPDRFSGADSGDSVTLTITGLQAEDEADYYCQSFDTTAGAHVFGGGTHLTVL	97%	34.2%	37%
can9L12VL_D93A (antibody, V domains shown) VH: EVQLVESGGDLVKPGGSLRLSCVASGFTFSSHGMHWVRQSPGKGLQWVAVINSGGSSTYYTDAVKGRFTISRDNAKNTVYLQMNSLRAEDTAMYYCAKESVGGWEQLVGPHFDYWGQGTLVIVSS VL: QSVLTQPTSVSGSLGQRVTISCSGSTNNIGILGASWYQLFPGKAPKLLVYGNGNRPSGVPDRFSGADSGDSVTLTITGLQAEDEADYYCQSFATTLGAHVFGGGTHLTVL	11%	3.3%	3.7%
can9L12VH_Y114A (antibody, V domains shown) VH: EVQLVESGGDLVKPGGSLRLSCVASGFTFSSHGMHWVRQSPGKGLQWVAVINSGGSSTYYTDAVKGRFTISRDNAKNTVYLQMNSLRAEDTAMYYCAKESVGGWEQLVGPHFDAWGQGTLVIVSS VL: QSVLTQPTSVSGSLGQRVTISCSGSTNNIGILGASWYQLFPGKAPKLLVYGNGNRPSGVPDRFSGADSGDSVTLTITGLQAEDEADYYCQSFDTTLGAHVFGGGTHLTVL	100%	99.9%	99.2%
can9L12VL_G30A (antibody, V domains shown) VH: EVQLVESGGDLVKPGGSLRLSCVASGFTFSSHGMHWVRQSPGKGLQWVAVINSGGSSTYYTDAVKGRFTISRDNAKNTVYLQMNSLRAEDTAMYYCAKESVGGWEQLVGPHFDYWGQGTLVIVSS VL: QSVLTQPTSVSGSLGQRVTISCSGSTNNIAILGASWYQLFPGKAPKLLVYGNGNRPSGVPDRFSGADSGDSVTLTITGLQAEDEADYYCQSFDTTLGAHVFGGGTHLTVL	53.9%	16.2%	13.8%
can9L12VH_W104A (antibody, V domains shown) VH: EVQLVESGGDLVKPGGSLRLSCVASGFTFSSHGMHWVRQSPGKGLQWVAVINSGGSSTYYTDAVKGRFTISRDNAKNTVYLQMNSLRAEDTAMYYCAKESVGGAEQLVGPHFDYWGQGTLVIVSS VL: QSVLTQPTSVSGSLGQRVTISCSGSTNNIGILGASWYQLFPGKAPKLLVYGNGNRPSGVPDRFSGADSGDSVTLTITGLQAEDEADYYCQSFDTTLGAHVFGGGTHLTVL	19.2%	5.2%	8.2%
can9L12VL_L32A (antibody, V domains shown) VH: EVQLVESGGDLVKPGGSLRLSCVASGFTFSSHGMHWVRQSPGKGLQWVAVINSGGSSTYYTDAVKGRFTISRDNAKNTVYLQMNSLRAEDTAMYYCAKESVGGWEQLVGPHFDYWGQGTLVIVSS VL: QSVLTQPTSVSGSLGQRVTISCSGSTNNIGIAGASWYQLFPGKAPKLLVYGNGNRPSGVPDRFSGADSGDSVTLTITGLQAEDEADYYCQSFDTTLGAHVFGGGTHLTVL	4.4%	1.5%	1.7%
can9L12VL_G97A (antibody, V domains shown) VH: EVQLVESGGDLVKPGGSLRLSCVASGFTFSSHGMHWVRQSPGKGLQWVAVINSGGSSTYYTDAVKGRFTISRDNAKNTVYLQMNSLRAEDTAMYYCAKESVGGWEQLVGPHFDYWGQGTLVIVSS VL: QSVLTQPTSVSGSLGQRVTISCSGSTNNIGILGASWYQLFPGKAPKLLVYGNGNRPSGVPDRFSGADSGDSVTLTITGLQAEDEADYYCQSFDTTLAAHVFGGGTHLTVL	98.9%	43.3%	35.9%
can9L12VL_I29A (antibody, V domains shown) VH: EVQLVESGGDLVKPGGSLRLSCVASGFTFSSHGMHWVRQSPGKGLQWVAVINSGGSSTYYTDAVKGRFTISRDNAKNTVYLQMNSLRAEDTAMYYCAKESVGGWEQLVGPHFDYWGQGTLVIVSS VL: QSVLTQPTSVSGSLGQRVTISCSGSTNNAGILGASWYQLFPGKAPKLLVYGNGNRPSGVPDRFSGADSGDSVTLTITGLQAEDEADYYCQSFDTTLGAHVFGGGTHLTVL	4.4%	1.5%	1.6%
can9L12VL_F92A (antibody, V domains shown) VH: EVQLVESGGDLVKPGGSLRLSCVASGFTFSSHGMHWVRQSPGKGLQWVAVINSGGSSTYYTDAVKGRFTISRDNAKNTVYLQMNSLRAEDTAMYYCAKESVGGWEQLVGPHFDYWGQGTLVIVSS VL: QSVLTQPTSVSGSLGQRVTISCSGSTNNIGILGASWYQLFPGKAPKLLVYGNGNRPSGVPDRFSGADSGDSVTLTITGLQAEDEADYYCQSADTTLGAHVFGGGTHLTVL	7.2%	2.7%	2.3%
can9L12VL_G33A (antibody, V domains shown) VH: EVQLVESGGDLVKPGGSLRLSCVASGFTFSSHGMHWVRQSPGKGLQWVAVINSGGSSTYYTDAVKGRFTISRDNAKNTVYLQMNSLRAEDTAMYYCAKESVGGWEQLVGPHFDYWGQGTLVIVSS VL: QSVLTQPTSVSGSLGQRVTISCSGSTNNIGILAASWYQLFPGKAPKLLVYGNGNRPSGVPDRFSGADSGDSVTLTITGLQAEDEADYYCQSFDTTLGAHVFGGGTHLTVL	7.5%	2.3%	2.9%
can9L12VL_H99A (antibody, V domains shown) VH: EVQLVESGGDLVKPGGSLRLSCVASGFTFSSHGMHWVRQSPGKGLQWVAVINSGGSSTYYTDAVKGRFTISRDNAKNTVYLQMNSLRAEDTAMYYCAKESVGGWEQLVGPHFDYWGQGTLVIVSS VL: QSVLTQPTSVSGSLGQRVTISCSGSTNNIGILGASWYQLFPGKAPKLLVYGNGNRPSGVPDRFSGADSGDSVTLTITGLQAEDEADYYCQSFDTTLGAAVFGGGTHLTVL	100%	56.9%	43.7%
